B1: TFIP11: human host interactor protein, Gene ID 24144, expressed from transfected ORF vector (protein)
chain: MSLSHLYRDGEGRIDDDDDERENFEITDWDLQNEFNPNRQRHWQTKEEATYGVWAERDSDDERPSFGGKRARDYSAPVNFISAGLKKGAAEEAELEDSDDEEKPVKQDDFPKDFGPRKLKTGGNFKPSQKGFAGGTKSFMDFGSWERHTKGIGQKLLQKMGYVPGRGLGKNAQGIINPIEAKQRKGKGAVGAYGSERTTQSMQDFPVVDSEEEAEEEFQKELSQWRKDPSGSKKKPKYSYKTVEELKAKGRISKKLTAPQKELSQVKVIDMTGREQKVYYSYSQISHKHNVPDDGLPLQSQQLPQSGKEAKAPGFALPELEHNLQLLIDLTEQEIIQNDRQLQYERDMVVNLFHELEKMTEVLDHEERVISNLSKVLEMVEECERRMQPDCSNPLTLDECARIFETLQDKYYEEYRMSDRVDLAVAIVYPLMKEYFKEWDPLKDCTYGTEIISKWKSLLENDQLLSHGGQDLSADAFHRLIWEVWMPFVRNIVTQWQPRNCDPMVDFLDSWVHIIPVWILDNILDQLIFPKLQKEVENWNPLTDTVPIHSWIHPWLPLMQARLEPLYSPIRSKLSSALQKWHPSDSSAKLILQPWKDVFTPGSWEAFMVKNIVPKLGMCLGELVINPHQQHMDAFYWVIDWEGMISVSSLVGLLEKHFFPKWLQVLCSWLSNSPNYEEITKWYLGWKSMFSDQVLAHPSVKDKFNEALDIMNRAVSSNVGAYMQPGARENIAYLTHTERRKDFQYEAMQERREAENMAQRGIGVAASSVPMNFKDLIETKAEEHNIVFMPVIGKRHEGKQLYTFGRIVIYIDRGVVFVQGEKTWVPTSLQSLIDMAK
B2: LNX2: human host interactor protein, Gene ID 222484, expressed from transfected ORF vector (protein)
chain: MGTTSDEMVSVEQTSSSSLNPLCFECGQQHWTRENHLYNYQNEVDDDLVCHICLQPLLQPLDTPCGHTFCYKCLRNFLQEKDFCPLDRKRLHFKLCKKSSILVHKLLDKLLVLCPFSSVCKDVMQRCDLEAHLKNRCPGASHRRVALERRKTSRTQAEIENENGPTLLDPAGTLSPEADCLGTGAVPVERHLTSASLSTWSEEPGLDNPAFEESAGADTTQQPLSLPEGEITTIEIHRSNPYIQLGISIVGGNETPLINIVIQEVYRDGVIARDGRLLAGDQILQVNNYNISNVSHNYARAVLSQPCNTLHLTVLRERRFGNRAHNHSDSNSPREEIFQVALHKRDSGEQLGIKLVRRTDEPGVFILDLLEGGLAAQDGRLSSNDRVLAINGHDLKYGTPELAAQIIQASGERVNLTIARPGKPQPGNTIREAGNHSSSSQHHTPPPYYSRPSSHKDLTQCVTCQEKHITVKKEPHESLGMTVAGGRGSKSGELPIFVTSVPPHGCLARDGRIKRGDVLLNINGIDLTNLSHSEAVAMLKASAASPAVALKALEVQIVEEATQNAEEQPSTFSENEYDASWSPSWVMWLGLPSTLHSCHDIVLRRSYLGSWGFSIVGGYEENHTNQPFFIKTIVLGTPAYYDGRLKCGDMIVAVNGLSTVGMSHSALVPMLKEQRNKVTLTVICWPGSLV
B3: TSC22D4: human host interactor protein, Gene ID 81628, expressed from transfected ORF vector (protein)
chain: MSGGKKKSSFQITSVTTDYEGPGSPGASDPPTPQPPTGPPPRLPNGEPSPDPGGKGTPRNGSPPPGAPSSRFRVVKLPHGLGEPYRRGRWTCVDVYERDLEPHSFGGLLEGIRGASGGAGGRSLDSRLELASLGLGAPTPPSGLSQGPTSWLRPPPTSPGPQARSFTGGLGQLVVPSKAKAEKPPLSASSPQQRPPEPETGESAGTSRAATPLPSLRVEAEAGGSGARTPPLSRRKAVDMRLRMELGAPEEMGQVPPLDSRPSSPALYFTHDASLVHKSPDPFGAVAAQKFSLAHSMLAISGHLDSDDDSGSGSLVGIDNKIEQAMDLVKSHLMFAVREEVEVLKEQIRELAERNAALEQENGLLRALASPEQLAQLPSSGVPRLGPPAPNGPSV
B4: LZTS2: human host interactor protein, Gene ID 84445, expressed from transfected ORF vector (protein)
chain: MAIVQTLPVPLEPAPEAATAPQAPVMGSVSSLISGRPCPGGPAPPRHHGPPGPTFFRQQDGLLRGGYEAQEPLCPAVPPRKAVPVTSFTYINEDFRTESPPSPSSDVEDAREQRAHNAHLRGPPPKLIPVSGKLEKNMEKILIRPTAFKPVLPKPRGAPSLPSFMGPRATGLSGSQGSLTQLFGGPASSSSSSSSSSAADKPLAFSGWASGCPSGTLSDSGRNSLSSLPTYSTGGAEPTTSSPGGHLPSHGSGRGALPGPARGVPTGPSHSDSGRSSSSKSTGSLGGRVAGGLLGSGTRASPDSSSCGERSPPPPPPPPSDEALLHCVLEGKLRDREAELQQLRDSLDENEATMCQAYEERQRHWQREREALREDCAAQAQRAQRAQQLLQLQVFQLQQEKRQLQDDFAQLLQEREQLERRCATLEREQRELGPRLEETKWEVCQKSGEISLLKQQLKESQAELVQKGSELVALRVALREARATLRVSEGRARGLQEAARARELELEACSQELQRHRQEAEQLREKAGQLDAEAAGLREPPVPPATADPFLLAESDEAKVQRAAAGVGGSLRAQVERLRVELQRERRRGEEQRDSFEGERLAWQAEKEQVIRYQKQLQHNYIQMYRRNRQLEQELQQLSLELEARELADLGLAEQAPCICLEEITATEI
B5: ZNF614: human host interactor protein, Gene ID 80110, expressed from transfected ORF vector (protein)
chain: MIKTQESLTLEDVAVEFSWEEWQLLDTAQKNLYRDVMVENYNHLVSLGYQTSKPDVLSKLAHGQEPWTTDAKIQNKNCPGIGKVDSHLQEHSPNQRLLKSVQQCNGQNTLRNIVHLSKTHFPIVQNHDTFDLYRKNLKSSLSLINQKRRHGINNPVEFIGGEKTLLHGKHERTHTKTRFSENAKCIHTKFQVFKHQRTQKIEKPHACIECEQTFLRKSQLIYHENICIQENPGSGQCEKLSRSVLFTKHLKTNTTDKICIPNEYRKGSTVKSSLITHQQTHTEEKSYMCSECGKGFTMKRYLIAHQRTHSGEKPYVCKECGKGFTVKSNLIVHQRTHTGEKPYICSECGKGFTMKRYLVVHQRTHTGEKPYMCSECGKGFTVKSNLIVHQRSHTGEKSYICSECGKGFTVKRTLVIHQRTHTGEKSYICNECGKGFTTKRTLIIHQRTHTGEKPYECNECGKAFSQKICLIQHERCHTGKTPFVCTECGKSYSHKYGLITHQRIHTGEKPYECNECGKAFTTKSVLNVHQRTHTGERPYGCSDCEKAFSHLSNLVKHKKMHTREMGRISQVENSCNGESQLLPYK

The values below come from US20120090043A1, “TARGETS FOR RETROVIRUS ASSOCIATED DISEASES” (priority 2009, published 2012).

The test system of the first assay is HIV-1 LTR promoter transactivation by HIV-1 Tat. Put plainly: Transactivation assay, HIV-1 LTR luciferase reporter with HIV-1 Tat. Type of assay: cell-based. Particulars: HEK293 cells co-transfected with pHIV1LTR-Luc, HIV-1 Tat and the human ORF; relative luciferase activity 24 h post-transfection; positive if >=2 or <=0.5 and p<0.05. The method in brief: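 HEK293 cells (10^4) were calcium-phosphate co-transfected with the HIV-1 LTR-luciferase reporter plus HIV-1 Tat, or the HTLV-1 LTR-luciferase reporter plus HTLV-1 Tax, each with a human ORF expression plasmid. A hit required relative activity ≥2 or ≤0.5 with paired t-test p<0.05.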
Take B1: the HIV_LTR transactiv. is listed as 0.19 fold change.

B2: the HIV_LTR transactiv. is given as 0.26 fold change.

As for B3, the HIV_LTR transactiv. was found to be 5.43 fold change.

B4 yielded an HIV_LTR transactiv. of 0.49 fold change.

Molecule B5 came in with an HIV_LTR transactiv. of 0.28 fold change.

The subject of another assay is HTLV-1 LTR promoter transactivation by HTLV-1 Tax. Briefly: Transactivation assay, HTLV-1 LTR luciferase reporter with HTLV-1 Tax. Type of assay: cell-based. Particulars: HEK293 cells co-transfected with pHTLV1LTR-Luc, HTLV-1 Tax and the human ORF; relative luciferase activity 24 h post-transfection; positive if >=2 or <=0.5 and p<0.05. Background: A reporter such as luciferase makes a cellular process visible.
Molecule B1 came in with an HTLV_LTR transactiv. of 0.45 fold change.

B2 registered an HTLV_LTR transactiv. of 0.28 fold change.

Consider B3, for which the HTLV_LTR transactiv. turned out to be 3.75 fold change.

With B4, the HTLV_LTR transactiv. stood at 0.23 fold change.

Turning to B5, the HTLV_LTR transactiv. is reported as 5.24 fold change.
